Measurements from patent publication CN113667016A (PUMISI BIOTECHNOLOGY ZHUHAI CO LTD, dated 2021).

Target: S1-His (SARS-CoV-2, UniProt P0DTC2 16-685)

B1: 89C8 (antibody, V domains shown)
VH: QVQLVQSGAEVKKPGSSVKVSCKASGGTFSSYAISWVRQAPGQGLEWMGGIIPILGIANYAQKFQGRVTITADKSTSTAYMELSSLRSEDTAVYYCARGGLGFGELFRKTGYYFDYWGQGTLVTVSS
VL: EIVMTQSPATLSVSPGERATLSCRASQSVSSNLAWYQQKPGQAPRLLIYAASTRATAIPARFSGSGSGTEFTLTISSLQSEDFAVYFCQQYNKLPLTFGGGTKVDIKR
  Kd: 7.6 nM
  koff: 0.000385 s⁻¹
  kon: 50400 M⁻¹ s⁻¹
